Measured values reported in US20030170203A1 (Human Genome Sciences, published 2003).

Key:
Test in all cases: flow cytometry on transiently transfected cells
[1] = biological target: T1, CD27 on transiently transfected cells (UniProt P26842 20-260, limits assumed)
T1 construct: whole, on cells
T1 sequence (looked up): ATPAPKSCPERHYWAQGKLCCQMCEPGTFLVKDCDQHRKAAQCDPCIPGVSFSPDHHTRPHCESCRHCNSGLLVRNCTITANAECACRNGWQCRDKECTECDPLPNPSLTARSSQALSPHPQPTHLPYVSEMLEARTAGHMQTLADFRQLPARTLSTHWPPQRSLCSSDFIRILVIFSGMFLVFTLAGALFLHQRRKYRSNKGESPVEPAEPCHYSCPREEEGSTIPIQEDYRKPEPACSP
Method: (§1) One million cells, in 0.1 ml of FACS buffer (PBS, 0.1% BSA, 0.1% NaN₃), were incubated with 0.1-1 microgram of protein or antibody at RT for 15 min. The cells were washed with 3 ml of FACS buffer, reacted with biotinylated primary antibody, and stained with PE-conjugated secondary antibody at RT for 15 min. Cells were then washed again, resuspended in 0.5 microgram/ml of propidium iodide, and live cells were gated and analyzed on a FACScan using the CellQuest software (BD Biosciences).

[2] = biological target: T2, CD30 on transiently transfected cells (UniProt P28908 19-595, limits assumed)
T2 construct: whole, on cells
T2 sequence (looked up): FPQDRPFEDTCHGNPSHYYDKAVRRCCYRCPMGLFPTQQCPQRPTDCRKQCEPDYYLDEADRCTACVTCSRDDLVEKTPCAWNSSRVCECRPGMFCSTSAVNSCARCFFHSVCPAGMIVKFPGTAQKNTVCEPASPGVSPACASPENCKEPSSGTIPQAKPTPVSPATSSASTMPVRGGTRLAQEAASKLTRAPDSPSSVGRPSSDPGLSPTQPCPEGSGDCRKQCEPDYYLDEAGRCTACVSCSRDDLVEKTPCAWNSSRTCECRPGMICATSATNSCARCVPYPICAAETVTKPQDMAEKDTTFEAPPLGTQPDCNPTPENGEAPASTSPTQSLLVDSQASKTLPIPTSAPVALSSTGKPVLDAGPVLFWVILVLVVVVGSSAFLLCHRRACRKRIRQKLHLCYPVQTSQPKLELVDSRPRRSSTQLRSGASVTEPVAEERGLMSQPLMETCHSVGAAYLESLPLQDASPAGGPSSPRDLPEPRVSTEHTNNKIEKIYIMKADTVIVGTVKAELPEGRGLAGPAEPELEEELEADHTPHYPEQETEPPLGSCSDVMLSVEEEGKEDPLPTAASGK
Method: as §1

[3] = biological target: T3, BCMA on transiently transfected cells (UniProt Q02223 1-184, limits assumed)
T3 construct: whole, on cells
T3 sequence (looked up): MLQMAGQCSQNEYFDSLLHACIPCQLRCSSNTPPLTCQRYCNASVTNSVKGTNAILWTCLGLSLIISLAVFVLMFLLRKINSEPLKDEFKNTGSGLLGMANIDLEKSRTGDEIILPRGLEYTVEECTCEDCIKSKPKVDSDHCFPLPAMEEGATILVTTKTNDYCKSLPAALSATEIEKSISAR
Method: as §1

[4] = biological target: T4, DR5 on transiently transfected cells (UniProt O14763 56-440, limits assumed)
T4 construct: whole, on cells
Method: as §1

[5] = biological target: T5, DcR1 on transiently transfected cells (UniProt O14798 26-236, limits assumed)
T5 construct: whole, on cells
T5 sequence (looked up): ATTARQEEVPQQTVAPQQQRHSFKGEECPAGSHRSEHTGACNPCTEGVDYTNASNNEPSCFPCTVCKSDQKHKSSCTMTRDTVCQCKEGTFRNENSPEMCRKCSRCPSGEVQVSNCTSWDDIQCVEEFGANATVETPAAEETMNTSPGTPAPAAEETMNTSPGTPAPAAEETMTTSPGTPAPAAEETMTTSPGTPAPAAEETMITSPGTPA
Method: as §1

[6] = biological target: T6, DcR2 on transiently transfected cells (UniProt Q9UBN6 56-386, limits assumed)
T6 construct: whole, on cells
T6 sequence (looked up): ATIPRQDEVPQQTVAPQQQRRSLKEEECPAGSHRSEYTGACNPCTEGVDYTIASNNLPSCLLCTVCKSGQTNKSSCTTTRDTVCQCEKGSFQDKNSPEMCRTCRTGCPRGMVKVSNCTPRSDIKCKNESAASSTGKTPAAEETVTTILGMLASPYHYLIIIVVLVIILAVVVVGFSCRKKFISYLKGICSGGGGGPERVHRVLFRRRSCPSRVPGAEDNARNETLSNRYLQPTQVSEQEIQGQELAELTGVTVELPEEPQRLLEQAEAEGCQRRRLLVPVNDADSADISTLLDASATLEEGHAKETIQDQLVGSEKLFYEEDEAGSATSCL
Method: as §1

[7] = biological target: T7, RANK on transiently transfected cells (UniProt Q9Y6Q6 30-616, limits assumed)
T7 construct: whole, on cells
T7 sequence (looked up): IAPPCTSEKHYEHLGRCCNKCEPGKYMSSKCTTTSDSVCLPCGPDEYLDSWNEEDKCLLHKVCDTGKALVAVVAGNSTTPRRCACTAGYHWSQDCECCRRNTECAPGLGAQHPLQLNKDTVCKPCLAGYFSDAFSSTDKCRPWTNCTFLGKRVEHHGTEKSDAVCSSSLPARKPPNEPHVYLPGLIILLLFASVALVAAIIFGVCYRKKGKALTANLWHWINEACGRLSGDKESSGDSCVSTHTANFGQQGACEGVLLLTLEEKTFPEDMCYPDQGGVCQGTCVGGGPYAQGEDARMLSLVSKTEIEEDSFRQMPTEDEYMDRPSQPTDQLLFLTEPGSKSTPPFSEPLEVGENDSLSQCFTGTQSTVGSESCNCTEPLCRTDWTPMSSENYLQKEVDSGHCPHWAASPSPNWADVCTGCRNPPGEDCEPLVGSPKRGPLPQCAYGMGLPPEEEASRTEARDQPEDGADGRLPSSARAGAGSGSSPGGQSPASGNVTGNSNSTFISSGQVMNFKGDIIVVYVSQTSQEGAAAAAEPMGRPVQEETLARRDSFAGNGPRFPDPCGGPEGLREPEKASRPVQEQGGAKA
Method: as §1

[8] = biological target: T8, HveA on transiently transfected cells (UniProt Q92956 39-283, limits assumed)
T8 construct: whole, on cells
T8 sequence (looked up): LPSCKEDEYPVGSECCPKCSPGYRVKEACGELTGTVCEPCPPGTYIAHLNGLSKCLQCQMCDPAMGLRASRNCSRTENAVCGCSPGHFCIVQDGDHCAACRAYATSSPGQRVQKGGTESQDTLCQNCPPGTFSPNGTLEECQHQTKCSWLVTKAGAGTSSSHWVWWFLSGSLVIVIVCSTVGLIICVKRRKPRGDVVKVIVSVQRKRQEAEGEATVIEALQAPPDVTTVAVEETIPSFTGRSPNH
Method: as §1

Measured: binding result

B1: FLAG-tagged soluble form of TNF-gamma-beta (aa 72-251) (ligand, human, UniProt O95150 72-251, looked up)
chain: LKGQEFAPSHQQVYAPLRADGDKPRAHLTVVRQTPTQHFKNQFPALHWEHELGLAFTKNRMNYTNKFLLIPESGDYFIYSQVTFRGMTSECSEIRQAGRPNKPDSITVVITKVTDSYPEPTQLLMGTKSVCEVGSNWFQPIYLGAMFSLQEGDKLMVNVSDISLVDYTKEDKTFFGAFLL
notes: also called FLAG-TL1β; FLAG-TNF-gamma-beta; not shown: FLAG tag of vector pFLAGCMV1
no binding: all assays above
